Columns and labels:
[1] = target: glucocorticoid receptor LBD (Homo sapiens) (UniProt P04150); conditions: cited from earlier work
[2] = target: HSP90αM domain (solid phase assays of Figure 2B and 2C); assay: ELISA; solid phase protein–protein interaction assay, dose-dependent; HSP90M domain (100 µg/mL) coated on plate, FN 30, 45, 70 and 120 kDa fragments at varying concentrations in solution
Tau (Homo sapiens) = Tau (Homo sapiens) (UniProt P10636); conditions: cited from earlier work
Tau (Homo sapiens), sequence (P10636 2-758): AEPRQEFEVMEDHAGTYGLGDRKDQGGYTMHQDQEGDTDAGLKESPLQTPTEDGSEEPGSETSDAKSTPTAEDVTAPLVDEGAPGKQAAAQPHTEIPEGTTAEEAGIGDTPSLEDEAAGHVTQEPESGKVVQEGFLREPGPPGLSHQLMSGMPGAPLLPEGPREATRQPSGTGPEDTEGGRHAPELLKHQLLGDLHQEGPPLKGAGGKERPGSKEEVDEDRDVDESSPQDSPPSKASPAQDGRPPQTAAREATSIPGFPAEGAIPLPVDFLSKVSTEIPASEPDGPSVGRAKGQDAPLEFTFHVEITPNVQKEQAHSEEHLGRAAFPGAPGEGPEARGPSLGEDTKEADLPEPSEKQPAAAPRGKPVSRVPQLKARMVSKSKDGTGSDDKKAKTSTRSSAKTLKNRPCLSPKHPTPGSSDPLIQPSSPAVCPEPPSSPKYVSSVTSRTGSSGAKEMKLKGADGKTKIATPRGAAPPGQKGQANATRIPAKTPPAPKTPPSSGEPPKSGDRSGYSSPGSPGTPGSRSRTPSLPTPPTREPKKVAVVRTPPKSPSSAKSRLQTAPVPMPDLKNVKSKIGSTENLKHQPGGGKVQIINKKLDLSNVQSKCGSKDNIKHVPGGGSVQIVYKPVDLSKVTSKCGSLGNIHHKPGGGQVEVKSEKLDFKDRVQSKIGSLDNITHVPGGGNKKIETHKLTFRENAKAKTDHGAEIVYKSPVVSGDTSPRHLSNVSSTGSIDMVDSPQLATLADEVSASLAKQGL

glucocorticoid receptor LBD (Homo sapiens), sequence (P04150 523-777): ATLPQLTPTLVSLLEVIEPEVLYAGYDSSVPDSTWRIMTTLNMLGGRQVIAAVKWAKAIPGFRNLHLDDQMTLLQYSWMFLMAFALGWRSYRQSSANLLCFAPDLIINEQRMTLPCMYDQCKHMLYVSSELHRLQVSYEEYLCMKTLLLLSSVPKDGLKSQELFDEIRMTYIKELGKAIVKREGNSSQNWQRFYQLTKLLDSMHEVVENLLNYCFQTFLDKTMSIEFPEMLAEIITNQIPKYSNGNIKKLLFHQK

## HSP90 (from UniProt P02829)
[1]
  Kd: 800 nM

## N-terminal FN 30-kDa heparin-binding fragment (FN30) (domain or fragment)
[2]
  Kd: 70 nM

## 45-kDa gelatin-binding FN fragment (FN45) (domain or fragment)
[2]
  Kd of FN45 relative to that of FN30 (fold higher): 3 fold

## 70-kDa N-terminal FN fragment (FN70) (domain or fragment)
[2]
  Kd: 500 nM

## HSP90 (from UniProt P07900)
Tau (Homo sapiens)
  Kd: 4800 nM

From article PMC7072298
